This test concerns the target polyketide synthase 16 (Pks16) (Dictyostelium discoideum (endogenous in AX2-214 cells)) (UniProt Q869W9). Nature of the test: cryo-EM structure; shotgun EM of endogenous assemblies in a heterogeneous pool of SEC and mixed-bed IEX fractions of D. discoideum lysate; 50 mM Hepes pH 7.4, 100 mM NaCl, 3 mM MgSO4, 0.1 mM EGTA, 1 mM DTT, 2% glycerol; 200 kV Glacios; proteins identified by MS of the same sample; AlphaFold 3 models fitted into the maps.

Substance “polyketide synthase 16 (Pks16), Q869W9 1-2603” registered a stoichiometry N of 2.

As usually defined, the stoichiometry N is the number of molecules, sites or subunits per partner or assembly.
